Assay results: IntAct's records for PubMed 20133701

Target: T1, rara_human RARA (UniProt P10276)
T1 sequence: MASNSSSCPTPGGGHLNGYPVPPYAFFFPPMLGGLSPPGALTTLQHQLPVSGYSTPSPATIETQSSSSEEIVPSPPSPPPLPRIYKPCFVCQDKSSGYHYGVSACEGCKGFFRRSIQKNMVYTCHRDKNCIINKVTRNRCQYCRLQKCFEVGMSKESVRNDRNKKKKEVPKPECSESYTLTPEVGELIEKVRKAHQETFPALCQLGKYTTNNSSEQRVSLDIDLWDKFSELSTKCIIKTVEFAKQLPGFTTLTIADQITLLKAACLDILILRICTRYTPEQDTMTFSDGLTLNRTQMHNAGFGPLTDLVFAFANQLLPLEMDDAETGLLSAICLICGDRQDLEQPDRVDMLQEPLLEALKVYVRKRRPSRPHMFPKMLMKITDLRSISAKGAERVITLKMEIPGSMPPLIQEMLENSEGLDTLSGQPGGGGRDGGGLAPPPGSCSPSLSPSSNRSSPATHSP

effect of a mutation on the interaction: disrupting interaction strength
Substance: LIM domain-containing protein ajuba (Mus musculus) (from UniProt Q91XC0) L292A;L293A;L295A;L418A;I419A;L420A;I488A;V489A;V491A
